From patent US20110135634A1, “METHODS OF INHIBITING INFECTION BY DIVERSE SUBTYPES OF DRUG-RESISTANT HIV-1” (priority 2007, published 2011)

Legend:
[1] = human, in vivo
Procedure: (§1) Individuals were treated in sequential, dose-rising cohorts of 5 subjects (4 active and 1 placebo) each and evaluated for up to 120 days post-treatment. […] Safety assessments consisted of monitoring the following: vital signs (blood pressure, pulse, temperature, etc; hematology (hemoglobin, hematocrit, leukocytes, platelets, etc.); serum chemistries (AST/ALT, alkaline phosphatase, BUN, creatinine, etc.); urinalysis (pH, specific gravity, protein, glucose, leukocytes, etc.); and ECGs (12-lead).

[2] = human, in vivo; remark: listed apart in the source
Procedure: as §1
Sera were diluted as appropriate and combined with L1.2-CCR5 cells, which are mouse pre-B lymphoma cells engineered to stably express human CCR5. […] Following incubation with test samples, cells were washed and combined with a FITC-labeled sheep antibody against human IgG4 (The Binding Site Limited, Cat. #AF009). Cells were washed again and analyzed by flow cytometry.
Serum was collected post-treatment, cryopreserved, and analyzed for PRO 140 levels. Peak serum concentrations ranged to […] at 0.1 mg/kg and […] at 0.5 mg/kg.

[3] = test system: CCR5-tropic envelope-complemented luciferase-expressing HIV-1 reporter viruses; test: PhenoSense HIV Entry Assay on U87-CD4/CCR5 cells; type: cell-based; design: key to Mean FC / FC: fold change in drug susceptibility vs DUAL (92HT594) reference envelope
Description: Of these, 10 isolates were derived from viruses with high-level resistance to protease (PR) and/or reverse transcriptase (RT) inhibitors. Four additional isolates incorporated the major enfuvirtide-conferring mutations in an HIV-1JR-CSF envelope background. […] EC50 values for test isolates were divided by the EC50 for a well-characterized reference virus (HIV-192HT594) to yield fold-change (FC) values.
A PhenoSense™ HIV Entry assay (Whitcomb et al, Antimicrobial Agents and Chemotherapy, 51:566, 2007) has been developed by modifying the PhenoSense HIV assay and is illustrated schematically in FIGS. 21 and 22. The assay uses nucleic acid amplification (RT-PCR) to derive HIV envelope sequences (gp160) from HIV(+) patient plasma samples or other sources. Amplified envelope sequences were incorporated into a proprietary expression vector (pCXAS) using conventional cloning methods. Envelope expression vectors were prepared as large pools of sequences (>200) in order to assure that the diversity of sequences accurately represents the diversity of viral quasispecies in the specimen at the time of sample collection. Recombinant HIV-1 stocks expressing virus envelope proteins were prepared by co-transfecting HEK293 cells with a HIV-1 genomic viral vector and an appropriate envelope expression vector. The HIV-1 genomic vector is replication defective and contains a luciferase expression cassette within a deleted region of the HIV envelope gene. Following transfection, recombinant virus particles were harvested and used to inoculate two U87 cell lines expressing CD4 and the CCR5 or CXCR4 co-receptor (U87-CD4/CCR5 and U87-CD4/CXCR4 cells, respectively). […] Drug susceptibility was measured by comparing the amount of luciferase activity produced in the presence of entry inhibitors to the amount of luciferase activity produced in absence of entry inhibitors. Entry inhibitor activity was evaluated at ten serial drug concentrations. Data were analyzed by plotting percent inhibition of luciferase activity vs. log10 drug concentration.
The 31 viruses used in this study were CCR5-tropic and were selected from Monogram Biosciences' Specimen Library. The panel included four of each subtypes A, B, C, D, F, and G viruses and three subtype J virus (Table 17). Of the 31 viruses examined, 17 were wildtype (WT), 10 were resistant to protease (PR) and/or reverse transcriptase (RT) inhibitors and 4 were enfuvirtide-resistant site-directed mutants (SDMs). The enfuvirtide-resistant viruses included envelopes with amino acid substitutions at positions 36-38 (GIV motif) and 43 within heptad repeat 1 (HR-1) and were introduced by site-directed mutagenesis into gp41 transmembrane (TM) sequence of the JRCSF envelope, as shown in Table 16.
DUAL (92HT594) is an envelope expression vector derived from a drug-naive reference virus that can efficiently infect cells expressing both the CD4 receptor and the CCR5 or CXCR4 co-receptor molecules on the cell surface. The DUAL envelope control was used to determine the fold changes in drug susceptibility of samples evaluated on U87-CD4/CCR5 cells. The DUAL control was also tested in each assay batch to evaluate and monitor assay performance over time.
JRCSF is an envelope expression vector derived from a drug-naive reference virus that can efficiently infect cells expressing both the CD4 receptor and the CCR5 co-receptor molecules on the cell surface.
Susceptibility data were analyzed by plotting percent inhibition of luciferase activity vs. log10 drug concentration.

[4] = test system: CCR5 chemokine signaling (L1.2-CCR5 cells); test: RANTES-induced calcium mobilization in L1.2-CCR5 cells versus HIV-1JR-FL replication in PBMC (FIG. 4); type: cell-based, human; settings: PBMC cultures, similar results for MIP-1α and MIP-1β
Description: Similar results were obtained for MIP-1α and MIP-1β.

[5] = test system: HIV-1JR-CSF; test: hu-PBL-SCID mouse model of HIV-1 infection (FIG. 5); type: in vivo, SCID mice; settings: multiple doses after steady state viral levels
Procedure: SCID mice were reconstituted with normal human peripheral blood mononuclear cells and infected 2 weeks later with HIV-1JR-CSF. Multiple doses of PRO 140 were administered following attainment of steady state viral levels. Plasma viral loads pre- and post-injection are indicated.

[6] = test system: HIV-1; settings: Olson et al., 1999; Trkola et al., 2001; cited from earlier work
[7] = biological target: CCR5 (Homo sapiens, UniProt P51681); settings: cited from earlier work
Chain of CCR5 (P51681 whole entry): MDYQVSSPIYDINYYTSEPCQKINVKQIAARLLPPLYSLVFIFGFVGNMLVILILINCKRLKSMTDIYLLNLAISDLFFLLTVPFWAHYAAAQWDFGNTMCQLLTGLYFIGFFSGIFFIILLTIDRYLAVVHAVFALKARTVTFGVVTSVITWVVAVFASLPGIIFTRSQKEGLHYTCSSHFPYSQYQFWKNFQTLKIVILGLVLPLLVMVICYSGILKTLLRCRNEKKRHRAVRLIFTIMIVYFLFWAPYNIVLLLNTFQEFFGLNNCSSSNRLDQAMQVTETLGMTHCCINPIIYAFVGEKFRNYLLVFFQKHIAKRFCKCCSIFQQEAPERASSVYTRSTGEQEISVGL

B1: PRO 140: humanized IgG4,κ anti-CCR5 mAb being developed for HIV-1 therapy (antibody, chains of the INN, looked up, V domains shown)
VH: EVQLVESGGGLVKPGGSLRLSCAASGYTFSNYWIGWVRQAPGKGLEWIGDIYPGGNYIRNNEKFKDKTTLSADTSKNTAYLQMNSLKTEDTAVYYCGSSFGSNYVFAWFTYWGQGTLVTVSS
VL: DIVMTQSPLSLPVTPGEPASISCRSSQRLLSSYGHTYLHWYLQKPGQSPQLLIYEVSNRFSGVPDRFSGSGSGTDFTLKISRVEAEDVGVYYCSQSTHVPLTFGQGTKVEIK
- dose-limiting toxicity [1]: no dose-limiting toxicity
- terminal serum half-life [2]: 240 to 288 h
- median IC50 ([3]; 27 viruses representing different genetic subtypes): 0.44 µg/mL
- range of FC values ([3]; 31 test viruses, relative to HIV-1 92HT594): 0.28-4.1
- mean EC50 ([3]; all 31 test viruses): 0.50 ± 0.27 µg/mL
- Mean FC ([3]; all 31 test viruses, relative to reference virus HIV-1 92HT594): 1.5±0.8
- FC ([3]; envelopes from PR/RT-resistant viruses): 1.4±1.0
- mean IC50 ([3]; four enfuvirtide-resistant SDMs): 0.82 µg/mL
- IC50, Average ([3]; panel of 31 viruses): 0.5096 µg/mL
- IC50, Max ([3]; panel of 31 viruses): 1.4329 µg/mL
- IC50, Median ([3]; panel of 31 viruses): 0.4418 µg/mL
- IC50, Min ([3]; panel of 31 viruses): 0.0955 µg/mL
- Mean FC ([3]; subtype A): 1.0±0.4
- Mean FC ([3]; subtype B): 1.5±0.2
- Mean FC ([3]; subtype C): 0.94±0.5
- Mean FC ([3]; subtype D): 1.4±0.6
- Mean FC ([3]; subtype F): 1.5±0.7
- Mean FC ([3]; subtype G): 1.8±1.6
- Mean FC ([3]; subtype J): 1.2±0.4
- effect on RANTES-induced calcium mobilization and on HIV-1JR-FL replication [4]: blocks HIV-1 but not chemokine signaling
- control of viral replication (plasma viral loads) [5]: prolonged control of viral replication
- IC90 [6]: about 4 μg/ml
- Block Natural Activity of CCR5 ([7]; Table 2 summary): No
- Development of Resistance In Vitro ([7]; Table 2 summary): None at 40 weeks
- Viral Cross-Resistance ([7]; Table 2 summary): Limited
- tolerability [7]: No Toxicity
